Results on 2 molecules are retold here after patent US11926678B2, “Composite polypeptide having a metal binding motif and molecular construct comprising the same” (Immunwork Inc., priority 2020, dated 2024).

Series [1] is described as follows: Half-life in BALB/c mice after i.v. administration (serum ELISA). As to conditions: about 200 μL of 3.33 μM protein. It is filed as in vivo. The procedure: The measurement of half-lives of the stabilized 2-chain (scFv α CD19)-Fc-MBM-1×2 DOTA bundles was carried out in mice after i.v. administration. The (scFv α CD19)-Fc-MBM-1×2 DOTA bundles in the serum sample was observed using ELISA. 8 to 10-week-old BALB/c mice were purchased from BioLasco, Taipei, Taiwan. Mice were grouped into three mice per group, and were injected intravenously with about 200 μL of 3.33 μM protein.
For orientation: An ELISA detects its analyte on a solid surface through an enzyme-linked reagent.

Series [2] deals with T1, human CD19 on human B lymphoma cell line Raji (Homo sapiens, UniProt P15391).
T1 construct: incubating 1×10^6 CD19-expressing Raji cells with 0.001 μg/ml of each construct; endogenous in cells; host or cells: Raji (human B lymphoma cell line)
T1 sequence (P15391 20-556): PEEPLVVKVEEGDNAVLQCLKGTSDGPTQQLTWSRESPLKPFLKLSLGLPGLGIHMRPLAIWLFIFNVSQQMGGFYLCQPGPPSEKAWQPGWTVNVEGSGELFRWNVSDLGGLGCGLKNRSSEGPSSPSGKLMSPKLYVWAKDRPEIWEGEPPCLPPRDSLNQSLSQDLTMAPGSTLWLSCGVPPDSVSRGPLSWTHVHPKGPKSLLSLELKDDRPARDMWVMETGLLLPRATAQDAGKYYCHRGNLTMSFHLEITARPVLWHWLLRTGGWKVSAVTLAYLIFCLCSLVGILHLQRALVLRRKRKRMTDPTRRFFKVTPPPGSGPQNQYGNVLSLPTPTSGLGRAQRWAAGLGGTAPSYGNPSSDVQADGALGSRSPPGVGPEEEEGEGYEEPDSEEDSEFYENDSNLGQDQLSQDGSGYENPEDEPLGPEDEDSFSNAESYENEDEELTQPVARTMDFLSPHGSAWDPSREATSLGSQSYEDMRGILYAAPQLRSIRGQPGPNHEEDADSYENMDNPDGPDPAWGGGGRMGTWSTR
Put plainly: Cell staining (FACS) binding to CD19-expressing Raji cells. The note with it: 0.001 μg/ml, on ice 30 minutes. The class given is cell-based. The procedure: (§1) Two stabilized molecular constructs, (scFv α CD19)-Fc-MBM-1×2 DOTA bundles and (scFv α CD19)-Fc-MBM-3×2 DOTA bundles, were analyzed for their ability to bind to human CD19 on human B lymphoma cell line Raji. The assay was performed by incubating 1×10^6 CD19-expressing Raji cells with 0.001 μg/ml of each construct in PBS, 1% BSA on ice for 30 minutes, using anti-CD19 antibody (RB4v1.2), (scFv α CD19)-Fc-MBM-1×2 DOTA bundles and (scFv α CD19)-Fc-MBM-3×2 DOTA bundles as positive controls. The anti-HER2 antibody (trastuzumab) was used as a negative control. The staining of cells was analyzed by FACS (FACSCanto II; BD Biosciences) using FITC-conjugated goat anti-human IgG.Fc (diluted 1:200 in PBS/BSA) (Caltag, Buckingham, UK) at 4° C. for 20 minutes in the dark.

Series [3] concerns CD19-expressing tumors (Raji xenograft). The series is described as follows: IVIS imaging of targeting to CD19-expressing xenograft tumor. It is filed as in vivo, NOD-SCID mice. From the text: In this Example, in vivo imaging system (IVIS) was used to investigate the targeting effect of the stabilized 2-chain (scFv α CD19)-Fc-MBM-1×2 DOTA bundles to CD19-expressing tumors in mouse xenograft model. Prior to IVIS imaging, a Dylight 680 Antibody Labeling Kit (Thermo Scientific) was used to conjugate the stabilized 2-chain (scFv α CD19)-Fc-MBM-1×2 DOTA bundles from Example 19 and the anti-CD19 antibody (RB4v1.2), according to the manufacturer's instructions.
8 to 10-week-old NOD-SCID (NOD.CB17-Prkdc^scid/JNarl) were purchased from Laboratory Animal Facility of Institute of Cellular and Organismic Biology, Academia Sinica, Taipei, Taiwan. The mice were injected intraperitoneally with 1×10^7 B-cell lymphoma Raji cells per mouse 2 weeks before the treatment. The mice were grouped into three mice per group, and were injected intravenously with about 200 μL of 6.65 μM labeled molecule. At various time points, mice were anaesthetized with isoflurane in O2 and placed in the IVIS Spectrum In Vivo Imaging System (PerkinElmer) with a supine position. […] Images were captured at indicated time points using IVIS Spectrum imager and analyzed with Living Image software.
Fluorescent images from NOD-SCID mice were captured and analyzed at 0 hour, 24 hours, 48 hours, and 72 hours after the administration of DyLight 680-conjugated proteins. […]

For series [4] the test system is unchanged. Put plainly: Biodistribution by tissue ELISA in CD19-expressing xenograft tumor model. The class given is in vivo, NOD-SCID mice. The note with it: day 7 after i.v. injection. The procedure:
For biodistribution analysis of the stabilized (scFv α CD19)-Fc-MBM-1×2 DOTA bundles in xenograft mouse model, the procedure set forth in Example 32 was used with some modifications.
Briefly, the mice were injected subcutaneously with 1×10^7 B-cell lymphoma Raji cells per mouse 2 to 3 weeks before the treatment. The mice were grouped into three mice per group, and were injected intravenously with about 200 μL of 6.65 μM labeled molecule.
Biodistribution of NOD-SCID mice were analyzed by tissue ELISA at 7 days after the administration of the stabilized 2-chain (scFv α CD19)-Fc-MBM-1×2 DOTA bundles and the anti-CD19 antibody. Briefly, the animals were sacrificed at day 7 after injection. Blood was hemospasia from the heart, and tissue samples from 11 organs were collected. Tissues samples were homogenized using homogenizer and analyzed further for measuring the concentration of the injected molecules by ELISA.

Series [5] is described as follows: Stability with glutathione or human serum albumin, SDS-PAGE. The class given is in vitro ADME. The note with it: 37° C., 30 days. The procedure:
To evaluate the stability of the stabilized 2-chain (scFv α CD19)-Fc-MBM-1×2 DOTA bundles, the molecular constructs were placed in Tris buffer (100 mM Tris buffer at pH 7.3, 50 mM Bis-Tris buffer, and 290 mM NaCl) with glutathione or human serum albumin, and then incubated at 37° C. for 30 days.

Series [6] addresses T2, human CD19 on human B lymphoma cell lines Ramos (Homo sapiens, UniProt P15391).
T2 construct: two molecular constructs containing MBM-1 and MBM-3 on CD19-expressing Ramos cells; endogenous in cells; host or cells: Ramos (human B lymphoma cell line)
T2 sequence (P15391 20-556): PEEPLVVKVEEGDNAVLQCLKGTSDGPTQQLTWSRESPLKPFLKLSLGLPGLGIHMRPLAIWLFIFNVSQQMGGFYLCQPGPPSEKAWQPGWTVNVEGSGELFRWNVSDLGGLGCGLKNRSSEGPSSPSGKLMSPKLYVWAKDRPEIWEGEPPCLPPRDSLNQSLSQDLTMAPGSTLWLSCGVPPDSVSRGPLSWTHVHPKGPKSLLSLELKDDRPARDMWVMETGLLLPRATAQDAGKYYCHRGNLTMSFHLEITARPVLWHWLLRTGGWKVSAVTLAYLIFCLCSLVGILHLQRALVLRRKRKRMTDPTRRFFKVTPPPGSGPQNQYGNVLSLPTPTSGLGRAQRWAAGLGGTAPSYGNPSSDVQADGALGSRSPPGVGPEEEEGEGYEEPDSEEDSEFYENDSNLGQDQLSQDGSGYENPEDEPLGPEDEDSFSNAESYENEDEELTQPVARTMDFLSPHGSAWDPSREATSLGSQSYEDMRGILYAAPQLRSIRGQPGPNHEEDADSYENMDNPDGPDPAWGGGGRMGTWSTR
Put plainly: Cell staining (FACS) binding to CD19-expressing Ramos cells. It is filed as cell-based. On the procedure: as §1
These molecular constructs were also analyzed for their ability to bind to human CD19 on human B lymphoma cell lines Ramos. The assay was performed using the protocol similar to the one used in cell binding assay with Raji cells. The staining of Ramos cells was analyzed by FACS (FACSCanto II; BD Biosciences) using FITC-conjugated goat anti-human IgG.Fc, where anti-CD19 IgG is used as a positive control. The anti-HER2 antibody (trastuzumab) was used as a negative control. […]

The nature of series [7]: Examination of retro-Michael addition product, Western blot. It is filed as in vitro ADME. As to conditions: 37° C., 30 days, compared with stock at 4° C. The procedure:
A further confirmation of the stability of the 2-chain (scFv α CD19)-Fc-MBM-1×2 DOTA bundles, the stabilized molecular construct was incubated with glutathione or HSA and then analyzed using Western blot.
For the western blot analysis of the stabilized samples, briefly, the samples were separated on 8% SDS-PAGE gels and transferred to a poly(vinylidene fluoride) (PVDF) membrane (Millipore). The membrane blots were blocked in PBS containing 5% BSA and 0.05% Tween 20 for 1 hour at room temperature. After washing 3 times with phosphate buffered saline tween-20 (PBST) containing PBS and 0.05% Tween-20, the blots were incubated with goat anti-human IgG.Fc antibody conjugated with horseradish peroxidase (Millipore). Then the membranes were washed 3 times with PBST, and immunoreacted bands were detected using ECL™ western blotting detection reagents (Millipore) and exposed on Fujifilm (Tokyo, Japan).

B1: stabilized 2-chain (scFv α CD19)-Fc-MBM-1×2 DOTA bundles: 2-chain anti-CD19 scFv-Fc fusion with MBM-1 (ACPGHA), two Mal-Peptide 2-DOTA bundles conjugated, maleimide ring opened (conjugate)
chain: EIVLTQSPAIMSASPGERVTMTCSASSGVNYMHWYQQKPGTSPRRWIYDTSKLASGVPARFSGSGSGTDYSLTISSMEPEDAATYYCHQRGSYTFGGGTKLEIKRGSTSGSGKPGSGEGSTKGQVQLVQPGAEVVKPGASVKLSCKTSGYTFTSNWMHWVKQAPGQGLEWIGEIDPSDSYTNYNQNFQGKAKLTVDKSTSTAYMEVSSLRSDDTAVYYCARGSNPYYYAMDYWGQGTSVTVSSGGGASDKTHTCPPCPAPELLGGPSVFLFPPKPKDTLMISRTPEVTCVVVDVSHEDPEVKFNWYVDGVEVHNAKTKPREEQYNSTYRVVSVLTVLHQDWLNGKDYKCKVSNKALPAPIEKTISKAKGQPREPQVYTLPPSRDELTRNQVSLTCLVKGFYPSDIAVEWESNGQPENNYKTTPPVLDSDGSFFLYSKLTVDKSRWQQGNVFSCSVMHEALHNHYTQKSLSLSPGGGGACPGHA
A word on the half-life: it is how long it takes for the measured level to halve. Lower therefore signals rapid decline. For the molecule B1, the half-life in series [1] is around 193.5 h. The “binding to Raji cells (cell staining)” value in series [2] is “bound to Raji cells substantially positively”. Also, the “penetration into tumors compared with normal organ” value in series [3] (24, 48 and 72 hours after i.v. injection, DyLight 680-labeled) is “significantly greater”. In series [3] (mouse xenograft model), the “targeting effect to CD19-expressing tumors” value is recorded as “satisfactory targeting effect”. Further, the “targeting of CD19-expressing tumors (tissue-to-blood ratio biodistribution)” value in series [4] is listed as “can target CD19-expressing tumors”. In addition, in series [5] (SDS-PAGE), the “stability while incubated with glutathione or human serum albumin” value is given as “satisfactory stability”. The “intact molecular construct still in solution without retro-Michael addition product” value in series [5] (HSA-treated group) and in series [5] (glutathione-treated group) was “approximately 90%” in each case. The “binding to Ramos cells (cell staining)” value in series [6] is listed as “bound to Ramos cells substantially positively”. The “stability while incubated with glutathione or HSA” value in series [7] is recorded as “satisfactory stability”.

B2: (scFv α CD19)-Fc-MBM-1 fusion protein: scFv specific for human CD19 (from RB4v1.2) fused to IgG1.Fc, GGGG linker and MBM-1 ACPGHA; SEQ ID NO: 13 (protein)
chain: EIVLTQSPAIMSASPGERVTMTCSASSGVNYMHWYQQKPGTSPRRWIYDTSKLASGVPARFSGSGSGTDYSLTISSMEPEDAATYYCHQRGSYTFGGGTKLEIKRGSTSGSGKPGSGEGSTKGQVQLVQPGAEVVKPGASVKLSCKTSGYTFTSNWMHWVKQAPGQGLEWIGEIDPSDSYTNYNQNFQGKAKLTVDKSTSTAYMEVSSLRSDDTAVYYCARGSNPYYYAMDYWGQGTSVTVSSGGGASDKTHTCPPCPAPELLGGPSVFLFPPKPKDTLMISRTPEVTCVVVDVSHEDPEVKFNWYVDGVEVHNAKTKPREEQYNSTYRVVSVLTVLHQDWLNGKDYKCKVSNKALPAPIEKTISKAKGQPREPQVYTLPPSRDELTRNQVSLTCLVKGFYPSDIAVEWESNGQPENNYKTTPPVLDSDGSFFLYSKLTVDKSRWQQGNVFSCSVMHEALHNHYTQKSLSLSPGGGGACPGHA
B2 returned a half-life in series [1] of around 179.6 h.
